Measurements as given in US20230078601A1 (CLEVELAND CLINIC FOUNDATION, published 2023).

Legend:
[1] = target: T1, Native p17-33; assay: SPOT peptide array of membrane-bound 17-mer peptides, 4D12G1, chemiluminescence
T1 construct: also called AMHR2-ED 17-33 17-mer peptide
T1 peptide: GSTKTLGELLDTGTELP
Experimental: (§1) on cellulose membranes (JPT Peptide Technologies, Berlin, Germany), treated overnight with blocking buffer (Thermo Fisher), followed by treatment with the 4D12G1 mAb at 1.0 μg/ml for 3 hours at room temperature, followed by three washes with PBS containing 0.01% Tween-20 (Bio-Rad). The membranes were then treated with a 1:10,000 dilution of an HRP-conjugated rabbit anti-mouse IgG (MilliporeSigma) followed by three washes with PBS containing 0.01% Tween-20 (Bio-Rad). Bound antibody was detected using the HyGLO chemiluminescence system (Thomas Scientific).
An overlapping series of 16-mer peptides spanning the entire 132 amino acid sequence of human AMHR2-ED (FIG. 3A) with moving single amino acid shifts were plated for direct ELISA testing using the 4D12G1 mAb as primary antibody. […] To determine amino acids recognized by the 4D12G1 mAb, an overlapping series of peptides spanning the immunoreactive sequence comprising AMHR2-ED 13-30 were synthesized with alanine substitutions at each N-terminal residue or with glycine substitutions for any native N-terminal alanine. These peptides were used in competitive ELISAs to determine which residues inhibit binding of the 4D12G1 mAb with solid phase rhAMHR2-ED. […] Bound antibody was detected by chemiluminescence. […]

[2] = target: T2, p20-35; assay: SPOT peptide array on cellulose membrane, 4D12G1 at 1.0 µg/ml, chemiluminescence
T2 construct: SPOT array peptide on cellulose membrane; also called AMHR2-ED 20-35 16-mer peptide
T2 peptide: KTLGELLDTGTELPRA
Experimental: as §1, with “The AMHR2-ED binding sequence of the 4D12G1 mAb and the critical AMHR2-ED residues for such binding were confirmed by SPOT peptide arrays. Peptides spanning the AMHR2-ED 9-40 immunoreactive region and ranging from 4-16-mers in length were synthesized >90% pure on cellulose” for “on cellulose”
(§2) An overlapping series of 16-mer peptides spanning the entire 132 amino acid sequence of human AMHR2-ED (FIG. 3A) with moving single amino acid shifts were plated for direct ELISA testing using the 4D12G1 mAb as primary antibody. […] To determine amino acids recognized by the 4D12G1 mAb, an overlapping series of peptides spanning the immunoreactive sequence comprising AMHR2-ED 13-30 were synthesized with alanine substitutions at each N-terminal residue or with glycine substitutions for any native N-terminal alanine. These peptides were used in competitive ELISAs to determine which residues inhibit binding of the 4D12G1 mAb with solid phase rhAMHR2-ED. […] To determine the minimal AMHR2-ED sequence involved in the binding of the 4D12G1 mAb, SPOT peptide arrays were generated spanning the immunoreactive region of AMHR2-ED. Peptides ranging from 4-16-mers in length were immobilized on cellulose membranes and treated with the 4D12G1 mAb. Bound antibody was detected by chemiluminescence.

[3] = target: T3, p21-36; assay: as above
T3 construct: SPOT array peptide on cellulose membrane; also called AMHR2-ED 21-36 16-mer peptide
T3 peptide: TLGELLDTGTELPRAI
Experimental: as §1, with “The AMHR2-ED binding sequence of the 4D12G1 mAb and the critical AMHR2-ED residues for such binding were confirmed by SPOT peptide arrays. Peptides spanning the AMHR2-ED 9-40 immunoreactive region and ranging from 4-16-mers in length were synthesized >90% pure on cellulose” for “on cellulose”
as §2

[4] = target: T4, p22-37; assay: as above
T4 construct: SPOT array peptide on cellulose membrane; also called AMHR2-ED 22-37 16-mer peptide
T4 peptide: LGELLDTGTELPRAIR
Experimental: as §1, with “The AMHR2-ED binding sequence of the 4D12G1 mAb and the critical AMHR2-ED residues for such binding were confirmed by SPOT peptide arrays. Peptides spanning the AMHR2-ED 9-40 immunoreactive region and ranging from 4-16-mers in length were synthesized >90% pure on cellulose” for “on cellulose”
as §2

[5] = target: T5, p20-26; assay: as above
T5 construct: SPOT array peptide on cellulose membrane; residues 20-26 of AMHR2-ED; also called AMHR2-ED 20-26 7-mer peptide; KTLGELL
T5 peptide: KTLGELL
Experimental: as §1, with “The AMHR2-ED binding sequence of the 4D12G1 mAb and the critical AMHR2-ED residues for such binding were confirmed by SPOT peptide arrays. Peptides spanning the AMHR2-ED 9-40 immunoreactive region and ranging from 4-16-mers in length were synthesized >90% pure on cellulose” for “on cellulose”
as §2

[6] = target: T6, recombinant extracellular domain of human AMHR2 (rhAMHR2-ED), C-terminal hexahistidine-tagged fusion protein (human, UniProt Q16671 18-149); assay: SPR, Biacore 3000, 25 C; 4D12G1 immobilised by amine coupling, rhAMHR2-ED as analyte, Langmuir 1:1 fit
T6 construct: also called human AMHR2-ED
T6 sequence: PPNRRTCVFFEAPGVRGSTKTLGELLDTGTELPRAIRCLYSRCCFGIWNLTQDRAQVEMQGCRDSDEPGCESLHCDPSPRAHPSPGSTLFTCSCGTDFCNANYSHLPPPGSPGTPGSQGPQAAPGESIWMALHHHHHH
Experimental: Briefly, the 4D12G1 mAb at 300 nM was diluted in sodium acetate at pH 5.0 and covalently immobilized on carboxymethylated dextran over a gold surface using an aqueous solution of N-ethyl-N′-(3-dimethylaminopropyl)carbodiimide (EDC) and N-hydroxysuccinimide (NHS; Sigma-Aldrich). The rhAMHR2-ED receptor analyte at different concentrations (10-1-103 nM) in a running buffer containing 10 mM HEPES at pH 7.4, 150 mM NaCl, 3 mM EDTA, and 0.005% P20 detergent was captured with a […] flow over the immobilized 4D12G1 ligand. Regeneration of flow cells was performed using 10 mM glycine (Sigma-Aldrich) at pH 1.7. All sensorgrams were corrected by subtracting the low signal of the control flow cell and the dissociation curve of the 4D12G1 mAb. The KD values, taking into account affinity and avidity, were calculated using a Langmuir 1:1 fitting model and BIAevaluation 3.2 software (GE Healthcare Bio-Sciences).
An overlapping series of 16-mer peptides spanning the entire 132 amino acid sequence of human AMHR2-ED (FIG. 3A) with moving single amino acid shifts were plated for direct ELISA testing using the 4D12G1 mAb as primary antibody. […]

B1: 4D12G1 mAb (antibody, IgG1, V domains shown)
VH: DVKLVESGGGLVKLGGSLKLSCAASGFTFSRYFMSWVRQTPEKRLELVAAINSDGGRTYYPDTVKGRFTISRDNAKNTLYLQMSSLKSEDTALYYCTRHIYSYYEDYFDYWGQGTTLTVSS
VL: DVVMTQTPLSLPVSLGDQASISCRSSQSLVHSNGNTYLHWYLQKPGQSPKLLIYKVSKRFSGVPDRFSGSGSGTDFTLKISRVEAEDLGVYFCSQSTHVYTFGGGTKLEIK
notes: also called 4D12G1 IgG1 mAb
binds: binding result [1] | binding result [2] | binding result [3] | binding result [4] | binding result [5]
0.119 nM: Kd [6]
